Consider two substances from patent US20040170614A1.

Assay in all cases: cell-based or functional assay
One assay concerns the target hmCD40ΔT6 (human; mouse) (UniProt P25942).
For assay [1], the target named is human-mouse hybrid CD40 (hmCD40) (human; mouse) (UniProt P25942).
The target of assay [2] is mouse CD40 (mCD40) (mouse) (UniProt P27512).
Chain of UniProt P27512 (P27512 20-289): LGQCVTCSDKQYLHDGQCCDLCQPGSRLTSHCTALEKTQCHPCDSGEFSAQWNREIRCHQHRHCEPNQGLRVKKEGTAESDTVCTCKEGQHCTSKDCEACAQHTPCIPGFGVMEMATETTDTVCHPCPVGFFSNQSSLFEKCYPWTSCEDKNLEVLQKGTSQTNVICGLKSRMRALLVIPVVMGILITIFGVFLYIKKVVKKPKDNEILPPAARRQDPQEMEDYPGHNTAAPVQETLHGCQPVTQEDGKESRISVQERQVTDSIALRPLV

Take anti-hCD40 mAb G28-5 (antibody): in the assay with hmCD40ΔT6 (human; mouse), the IgM secretion (Pfc), CH12.LX+hmCD40ΔT6 cells amounted to 187000 Pfc and the IgM secretion (Pfc), CH12.T2-/-+hmCD40ΔT6 cells is 34000 Pfc. Further, in assay [1], the IgM secretion (Pfc), CH12.LX+hmCD40 cells turned out to be 430000 Pfc and the IgM secretion (Pfc), CH12.T2-/-+hmCD40 cells turned out to be 376000 Pfc.

Regarding anti-mCD40 mAb 1C10 (antibody), in assay [2], the IgM secretion (Pfc), CH12.LX+hmCD40 cells was found to be 431000 Pfc; the IgM secretion (Pfc), CH12.LX+hmCD40ΔT6 cells came to 378000 Pfc; the IgM secretion (Pfc), CH12.T2-/-+hmCD40 cells came to 399000 Pfc; the IgM secretion (Pfc), CH12.T2-/-+hmCD40ΔT6 cells amounted to 340000 Pfc.
